The values below come from PMC4942575, “Plastid-nucleus communication involves calcium-modulated MAPK signalling”.

In one data set the target is MBP-ABI4 AAA (Arabidopsis thaliana, UniProt A0MES8 1-328, T111A;S114A;S130A). Put plainly: EMSA; poly(dI/dC); 10 ul: 2 ug protein, 200 fmol biotin probe, 1 ul poly(dI/dC), 1x LightShift binding buffer, 5% glycerol; room temperature 20 min; 6% native PAGE; pH and salt not given. Particulars: protein: recombinant; tags: MBP (pETMALc-H); label: 3' biotin. (In general: A gel shift assay detects complexes by their altered migration in electrophoresis.)
Sequence of MBP-ABI4 AAA (A0MES8 whole entry T111A/S114A/S130A): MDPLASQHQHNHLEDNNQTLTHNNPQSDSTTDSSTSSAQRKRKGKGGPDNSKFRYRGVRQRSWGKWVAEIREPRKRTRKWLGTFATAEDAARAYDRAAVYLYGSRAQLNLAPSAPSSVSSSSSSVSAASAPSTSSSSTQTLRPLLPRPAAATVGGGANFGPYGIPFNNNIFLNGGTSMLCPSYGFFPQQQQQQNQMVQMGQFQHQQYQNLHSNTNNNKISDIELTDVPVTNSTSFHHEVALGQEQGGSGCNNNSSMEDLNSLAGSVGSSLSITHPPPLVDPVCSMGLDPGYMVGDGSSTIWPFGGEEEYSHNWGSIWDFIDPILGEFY

For a further data set, the target named is MBP-ABI4 WT (Arabidopsis thaliana, UniProt A0MES8 1-328). Put plainly: EMSA; poly(dI/dC); competed by excess unlabelled probe; 10 ul: 2 ug protein, 200 fmol biotin probe, 1 ul poly(dI/dC), 1x LightShift binding buffer, 5% glycerol; room temperature 20 min; 6% native PAGE; pH and salt not given. The conditions noted are these: protein: recombinant; tags: MBP (pETMALc-H); label: 3' biotin.
Sequence of MBP-ABI4 WT (A0MES8 whole entry): as the sequence (A0MES8 whole entry T111A/S114A/S130A) above, with A111T, A114S, A130S counted along it

B1: LHCB promoter probe (dsDNA)
DNA 1: GACTAGAGACTGCCACATAAGAATAGTAAAGTTA
DNA 2: TAACTTTACTATTCTTATGTGGCAGTCTCTAGTC
With B1, the binding result in the data set with MBP-ABI4 AAA is “no binding”; in the data set with MBP-ABI4 WT, “binds”.
